Experimental findings from patent US20140348836A1 (published 2014) are described below.

Numbering of substitutions follows the chain as printed. Names and notes keep the numbering of the source.

First the molecules themselves.
B1: Antibody clone A4 (antibody, human IgG1, lambda, V domains shown)
VH: EVQLLESGGGLVQPGGSLRLSCAASGFTFSTYGMHWVRQAPGKGLEWLSYISGGSSYIFYADSVRGRFTISRDNSENALYLQMNSLRAEDTAVYYCARILRGGSGMDLWGQGTLVTVSS
VL: QSVLTQPPSASGTPGQRVTISCTGSTSNIGAGYKVYWYQQLPGTAPKLLIYGNINRPSGVPDRFSGSKSGTSASLAISGLRSEDEADYYCAAWDDSLSGLVFGGGTKLTVLG
notes: Tested as purified antibody; full chains are assembled here from VH/VL plus these; also called A4 ANTI-CD40 ANTIBODY
B2: Antibody B44 (antibody, V domains shown)
VH: B1 VH
VL: B1 VL with T26S, K34D
notes: Parent agonistic anti-CD40 antibody from the n-CoDeR library; Run alongside the IgG clones as 'B44 antibody' and detected with anti-human Ig on RAMOS cells; also called B44 antibody; original anti-CD40 antibody
B3: Antibody clone H11 (antibody, human IgG1, lambda, V domains shown)
VH: B1 VH
VL: B1 VL with T26S, K34N, D95G, S96G, S98L
notes: also called H11 ANTI-CD40 ANTIBODY
B4: Antibody clone C4 (antibody, human IgG1, lambda, V domains shown)
VH: B1 VH with S63T
VL: B1 VL
notes: Same VL changes as A4; VH carries S63T; also called C4 ANTI-CD40 ANTIBODY
B5: Antibody clone B9 (antibody, human IgG1, lambda, V domains shown)
VH: B1 VH
VL: B1 VL with T26S, K34N, D95G, S96G, S98L
B6: Antibody clone A5 (antibody, human IgG1, lambda, V domains shown)
VH: B1 VH
VL: B1 VL with T26S, K34H, N53S, A73G, D95S, L97S
B7: Antibody clone F6 (antibody, human IgG1, lambda, V domains shown)
VH: B1 VH
VL: B1 VL with T26S, K34D, G52R, D95G, S98L
B8: Antibody clone F9 (antibody, human IgG1, lambda, V domains shown)
VH: B1 VH
VL: B1 VL with T26S, K34G, D95G, S96T, S98T, V101L

T2 sequence (P25942 21-193 limits assumed): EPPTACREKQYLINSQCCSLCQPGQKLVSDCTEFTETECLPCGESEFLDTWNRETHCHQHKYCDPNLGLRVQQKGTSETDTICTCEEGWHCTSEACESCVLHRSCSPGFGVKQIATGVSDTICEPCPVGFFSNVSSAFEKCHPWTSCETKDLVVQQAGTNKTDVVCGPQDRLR

The target in the first test is T1, human CD40 on cells (human, UniProt P25942 21-277). Nature of the test: cell-based or functional assay.
T1 sequence (P25942 21-277): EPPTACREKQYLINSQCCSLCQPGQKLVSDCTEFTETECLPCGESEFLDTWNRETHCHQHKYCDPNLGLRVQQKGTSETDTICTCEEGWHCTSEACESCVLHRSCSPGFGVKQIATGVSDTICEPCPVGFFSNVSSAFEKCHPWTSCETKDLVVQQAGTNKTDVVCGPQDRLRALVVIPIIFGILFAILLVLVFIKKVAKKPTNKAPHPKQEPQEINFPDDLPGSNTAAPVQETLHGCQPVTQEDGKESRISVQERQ
As for B1, the “EC50 of CD80 up-regulation on monocyte-derived dendritic cells (FACS)” value (shortened to “EC50 of CD80 up-regulation”) was determined as 0.17 µg/mL, the “EC50 of CD86 up-regulation on monocyte-derived dendritic cells (FACS)” value (from here on “EC50 of CD86 up-regulation”) was 0.13 µg/mL, the “EC50 of MHC II up-regulation on monocyte-derived dendritic cells (FACS)” value (“EC50 of MHC II up-regulation” for short) was determined as 0.14 µg/mL and the “Maximum Fold Increase of CD80 on dendritic cells” value (shortened to “Maximum Fold Increase of CD80”) worked out at 599 fold. Further, the “Maximum Fold Increase of CD86 on dendritic cells” value (“Maximum Fold Increase of CD86” for short) worked out at 149 fold and the “Maximum Fold Increase of MHC II on dendritic cells” value (“Maximum Fold Increase of MHC II” below) was found to be 851 fold.

On to B2, for which the “EC50 of CD80 up-regulation” value was found to be 0.25 µg/mL, the “EC50 of CD86 up-regulation” value worked out at 0.37 µg/mL, the “EC50 of MHC II up-regulation” value was 0.51 µg/mL and the “Maximum Fold Increase of CD80” value is 584 fold. Further, the “Maximum Fold Increase of CD86” value was found to be 132 fold and the “Maximum Fold Increase of MHC II” value came to 811 fold.

On to B3, for which the “EC50 of CD80 up-regulation” value was 0.14 µg/mL, the “EC50 of CD86 up-regulation” value is 0.14 µg/mL, the “EC50 of MHC II up-regulation” value stood at 0.22 µg/mL and the “Maximum Fold Increase of CD80” value amounted to 641 fold. The “Maximum Fold Increase of CD86” value stood at 195 fold and the “Maximum Fold Increase of MHC II” value was found to be 481 fold.

Regarding B4, the “EC50 of CD80 up-regulation” value worked out at 0.031 µg/mL, the “EC50 of CD86 up-regulation” value was determined as 0.11 µg/mL, the “EC50 of MHC II up-regulation” value came to 0.04 µg/mL and the “Maximum Fold Increase of CD80” value was 609 fold. The “Maximum Fold Increase of CD86” value is 164 fold and the “Maximum Fold Increase of MHC II” value worked out at 395 fold.

A further test addresses T1, human CD40 on cells. Nature of the test: cell-based or functional assay. The source holds these as a separate data set.
Take B1: the “Allo DC/T IFN-γ EC50” value came to 0.04 µg/mL and the “Allo DC/T IFN-γ Max” value worked out at 8.9 pg/mL.

As for B2, the “Allo DC/T IFN-γ EC50” value came to 0.2 µg/mL and the “Allo DC/T IFN-γ Max” value is 8.7 pg/mL.

In the case of B5, the “Allo DC/T IFN-γ EC50” value worked out at 0.03 µg/mL and the “Allo DC/T IFN-γ Max” value was found to be 8.5 pg/mL.

B3: the “Allo DC/T IFN-γ EC50” value came to 0.03 µg/mL and the “Allo DC/T IFN-γ Max” value worked out at 9.5 pg/mL.

Take B6: the “Allo DC/T IFN-γ EC50” value came to 0.08 µg/mL and the “Allo DC/T IFN-γ Max” value came to 9.5 pg/mL.

Take B4: the “Allo DC/T IFN-γ EC50” value was 0.12 µg/mL and the “Allo DC/T IFN-γ Max” value amounted to 9 pg/mL.

Consider B7, for which the “Allo DC/T IFN-γ EC50” value amounted to 0.15 µg/mL and the “Allo DC/T IFN-γ Max” value came to 9 pg/mL.

Another test deals with T1, human CD40 on cells. The experiment in a line: cell-based or functional assay. This is another data set of the same source.
Take B1: the “Activation of B cells, EC50 (proliferation of CD19+ B cells, Cell titer-Glo)” value (“Activation of B cells, EC50” for short) stood at 0.16 µg/mL.

Turning to B2, the “Activation of B cells, EC50” value came to 0.204 µg/mL.

With B8, the “Activation of B cells, EC50” value came to 0.21 µg/mL.

As to B5, the “Activation of B cells, EC50” value amounted to 0.48 µg/mL.

With B3, the “Activation of B cells, EC50” value was determined as 0.46 µg/mL.

In the case of B6, the “Activation of B cells, EC50” value was determined as 0.29 µg/mL.

Consider B4, for which the “Activation of B cells, EC50” value is 0.288 µg/mL.

B7: the “Activation of B cells, EC50” value was determined as 0.4 µg/mL.

The next test has as its target T1, human CD40 on cells. Nature of the test: cell-based or functional assay. This is another data set of the same source.
For the molecule B1, the “Fold change in potency versus B44 antibody (rescue of huCD40/WEHI-231 cells from apoptosis and growth arrest)” value turned out to be 46 fold.

Turning to B5, the “Fold change in potency versus B44 antibody (rescue of huCD40/WEHI-231 cells from apoptosis and growth arrest)” value was found to be 38 fold.

Take B6: the “Fold change in potency versus B44 antibody (rescue of huCD40/WEHI-231 cells from apoptosis and growth arrest)” value stood at 19 fold.

Consider B4, for which the “Fold change in potency versus B44 antibody (rescue of huCD40/WEHI-231 cells from apoptosis and growth arrest)” value was 52 fold.

Another test has as its target T2, CD40hfc (R&Dsystems, USA) (UniProt P25942 21-193).
T2 construct: Bought reagent; also called immobilized CD40 receptor; target; not shown: Fc part ('hfc') of the bought fusion
Nature of the test: SPR, physiological pH and 37 C. The procedure: (§1) The affinity measures of purified antibodies by surface plasmon resonance using the Biacore 3000 instrument was performed according to manufacturer's protocols.
(§2) The CD40hfc (R&Dsystems, USA) was immobilized to the BIAcore sensorchip, CMS, using conventional amine coupling. The anti-CD40 antibodies of the invention, (serially diluted 1/3 from 1-0.012 nM) were analysed for binding in HBS-P (GE, BR-1003-68) at a flow rate of 30 μl/min at 37° C. and pH 7.3. The association was followed for 3 minutes and the dissociation for 10 minutes. Regeneration was performed twice using 50 mM NaOH for 30 seconds. The kinetic parameters and the affinity constants were calculated using BlAevaluation 4.1 software.
A general note: Surface plasmon resonance follows binding to a sensor surface in real time, without labels.
Regarding B1, the “fold improvement of affinity versus B44” value is approximately 100 fold.

B8: the “fold improvement of affinity versus B44” value was approximately 100 fold.

As to B5, the “fold improvement of affinity versus B44” value was approximately 100 fold.

For the molecule B3, the “fold improvement of affinity versus B44” value was approximately 100 fold.

Take B6: the “fold improvement of affinity versus B44” value was approximately 100 fold.

Turning to B4, the “fold improvement of affinity versus B44” value is approximately 100 fold.

In the case of B7, the “fold improvement of affinity versus B44” value is approximately 100 fold.

The next test addresses T1, human CD40 on cells. Nature of the test: flow cytometry (FACS) on RAMOS cells. As for the experimental part: (§3) The human Burkitt's lymphoma cell line RAMOS was used for binding analysis (ECACC, Sigma Aldrich, USA). The unconjugated anti-CD40 antibodies of the invention were assayed for binding to RAMOS cells.
(§4) RAMOS cells, approximately 125,000 cells, were incubated with anti-CD40 antibody, serially diluted 1/3 from 30-0.0015 μg/ml, for 30 minutes at 4° C. The cells were washed twice with FACS buffer and the secondary antibody, anti-human Ig Rabbit F(ab′)2/FITC (DAKO, Glostrup, Denmark), was subsequently added to the cells for another 30 minutes at 4° C. The cells were washed and analysed on a FACScalibur instrument, according to the manufacturer's instructions (Becton Dickinson, USA) and then the mean fluorescent intensity (“MFI”) was determined.
A general note: A flow cytometer gives signals particle by particle.
For B1, the “fold increase in potency (binding to RAMOS cells) versus B44” value (“fold increase in potency” below) is approximately 100 fold.

Consider B5, for which the “fold increase in potency” value was approximately 100 fold.

Regarding B3, the “fold increase in potency” value is approximately 100 fold.

Take B6: the “fold increase in potency” value was approximately 100 fold.

On to B4, for which the “fold increase in potency” value was approximately 100 fold.

Consider B7, for which the “fold increase in potency” value is approximately 100 fold.

The next test has as its target T1, human CD40 on cells. The experiment in a line: flow cytometry (FACS) on RAMOS cells, anti-human Ig F(ab')2-FITC detection, MFI. As for the experimental part: as §3, §4
Consider B1, for which a half-maximal effect (EC50) was put at 7 ng/mL.

For B2, the EC50 (commonly the concentration needed to bring the measured effect to its halfway point) was 380 ng/mL.

Molecule B5 displayed an EC50 of 4.9 ng/mL.

For B3, the EC50 amounted to 4.4 ng/mL.

B6: the midpoint of the response, the EC50, lay at 6.2 ng/mL.

B4 gave an EC50 of 6.1 ng/mL. The EC50 values of the last two molecules are within 1.5-fold of each other.

Turning to B7, the EC50 came to 5.8 ng/mL.

The target of the next test is T2, CD40hfc (R&Dsystems, USA). Nature of the test: SPR (Biacore 3000), CD40hfc amine-coupled on chip, antibody as analyte, 37 C, pH 7.3. The procedure:
as §1, §2
As to B1, binding was put at a Kd of 0.01 nM, the koff (commonly the rate constant with which the complex falls apart) was 7.6e-05 s⁻¹ and the kon (commonly the second-order rate constant of association) is 7.3e+06 M⁻¹ s⁻¹.

Turning to B2, the affinity, expressed as Kd, was 1.7 nM; the koff was 0.0045 s⁻¹; the kon is 2.7e+06 M⁻¹ s⁻¹.

Take B5: binding was characterised by a dissociation constant (Kd) of 0.014 nM, the koff is 0.00012 s⁻¹ and the kon came to 8.5e+06 M⁻¹ s⁻¹.

On to B3, for which the affinity, expressed as Kd, was 0.016 nM; the koff worked out at 0.00013 s⁻¹; the kon came to 8.5e+06 M⁻¹ s⁻¹.

As to B6, the Kd (as a rule, the concentration at which binding is half-saturated) is 0.011 nM; the koff is 9.6e-05 s⁻¹; the kon is 8.5e+06 M⁻¹ s⁻¹.

The target in another test is T2, CD40hfc (R&Dsystems, USA). The experiment in a line: SPR (Biacore 3000), CD40hfc amine-coupled on chip, antibody as analyte, 37 C, acetate buffer pH 5.4. As for the experimental part:
as §1, §2
Alternatively, samples were incubated in Acetate buffer pH 5.4, 10 mM Acetate, 150 mM NaCl, 0.005% T20, at 37° C.
B1 gave a Kd of 0.02 nM, a koff of 0.00022 s⁻¹ and a kon of 1.1e+07 M⁻¹ s⁻¹.

B2 yielded a Kd of 0.93 nM, a koff of 0.0055 s⁻¹ and a kon of 6e+06 M⁻¹ s⁻¹.

As to B5, the Kd worked out at 0.033 nM, the koff stood at 0.00032 s⁻¹ and the kon amounted to 9.7e+06 M⁻¹ s⁻¹.

In turn, B6 returned a Kd of 0.022 nM, a koff of 0.00025 s⁻¹ and a kon of 1.1e+07 M⁻¹ s⁻¹.
